The values that follow come from patent US20090202508A1, “NEGATIVE REGULATION OF HYPOXIA INDUCIBLE FACTOR 1 BY OS-9” (THE JOHNS HOPKINS UNIVERSITY, priority 2004, published 2009).

One experiment concerns the target T1, PHD2 (Homo sapiens, UniProt Q9GZT9).
T1 construct: expressed in transfected cells; host or cells: 293 cells (whole cell lysate used as the enzyme source)
Nature of the experiment: PHD binding assay (pull down of PHD2 with GST-HIF-1α (531-826)). The following applies: lysates from cells transfected with OS-9 and PHD2 vectors versus PHD2 vector alone; FIG. 7B. As to the method: For in vitro VHL binding assay, preincubated GstA and 5 μl of [^35S]methionine-labeled VHL protein were mixed in a total volume of 300 μl of PBS-T with 1 mM desferrioxamine and incubated at 4° C. for 90 min. 20 ul of glutathione-Sepharose-4B beads (Amersham Biosciences) was added and incubated for 30 min with rotation. Beads were washed three times with PBS-T. Proteins were eluted in Laemmli sample buffer, fractionated by SDS-PAGE, and detected by autoradiography. For PHD binding assay, […] of GST-HIF-1α was preincubated with 50 μg of -whole cell lysate in a total volume of 50 μl with PBS-T at 30° C. for 10 min with or without 1 mM DMOG. The reaction was terminated by addition of desferrioxamine to 1 mM, 20 μl of glutathione-Sepharose-4B beads were added and incubated for 30 min. The beads were washed three times with PBS-T. Bound protein was eluted in Laemmli sample buffer, fractionated by SDS-PAGE, and subjected to immunoblot assay using antibodies against PHD2 (Novus Biologicals Inc.) or GST (Amersham).

The target in experiment [1] is T2, HIF-1α (Homo sapiens, UniProt Q16665). Nature of the experiment: Co-immunoprecipitation of HA-OS-9 and HIF-1α in 293 cells. It is filed as cell-based. The following applies: anti-HA immunoprecipitation, FIG. 2B. As to the method:
(§1) 293 cells (3×10^6 cells per […] plate) were transfected with Lipofectamine Plus and a total of 10 μg of expression vectors. After 24 h, cells were lysed with PBS/0.1% Tween-20. 400 μg of whole cell lysate (brought to a final volume of 200 μl with lysis buffer) were immunoprecipitated using anti-HA affinity matrix (Roche) followed by immunoblot assay using antibody against HIF-1α (Zhong et al. 1999), PHD 1-3 (Novus Biologicals Inc.), or HA (Roche).
Target sequence in this assay (Q16665 whole entry): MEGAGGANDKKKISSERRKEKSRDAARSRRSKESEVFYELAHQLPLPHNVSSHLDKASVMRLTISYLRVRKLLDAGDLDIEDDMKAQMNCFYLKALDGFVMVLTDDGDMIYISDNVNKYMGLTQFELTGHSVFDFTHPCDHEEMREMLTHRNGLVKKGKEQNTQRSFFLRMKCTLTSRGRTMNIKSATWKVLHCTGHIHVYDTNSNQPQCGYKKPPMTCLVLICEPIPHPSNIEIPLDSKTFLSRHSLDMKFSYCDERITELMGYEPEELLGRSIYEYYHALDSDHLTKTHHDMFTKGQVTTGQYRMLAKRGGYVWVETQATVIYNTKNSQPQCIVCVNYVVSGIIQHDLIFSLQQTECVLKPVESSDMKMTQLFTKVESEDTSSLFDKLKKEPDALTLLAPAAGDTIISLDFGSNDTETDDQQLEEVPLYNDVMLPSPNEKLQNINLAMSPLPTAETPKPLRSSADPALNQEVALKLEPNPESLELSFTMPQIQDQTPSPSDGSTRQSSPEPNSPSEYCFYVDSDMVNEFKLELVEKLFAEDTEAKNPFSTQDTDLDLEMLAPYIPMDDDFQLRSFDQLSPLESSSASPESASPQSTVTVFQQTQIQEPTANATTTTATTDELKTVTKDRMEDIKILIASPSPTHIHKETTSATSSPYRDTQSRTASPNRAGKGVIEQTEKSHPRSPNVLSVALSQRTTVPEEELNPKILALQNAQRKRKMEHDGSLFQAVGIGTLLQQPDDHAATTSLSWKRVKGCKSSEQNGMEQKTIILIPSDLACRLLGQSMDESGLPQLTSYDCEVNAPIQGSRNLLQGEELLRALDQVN

The next experiment deals with T3, PHD1 (Homo sapiens, UniProt Q96KS0).
T3 construct: expressed in transfected cells; host or cells: 293 cells
T3 sequence (Q96KS0 whole entry): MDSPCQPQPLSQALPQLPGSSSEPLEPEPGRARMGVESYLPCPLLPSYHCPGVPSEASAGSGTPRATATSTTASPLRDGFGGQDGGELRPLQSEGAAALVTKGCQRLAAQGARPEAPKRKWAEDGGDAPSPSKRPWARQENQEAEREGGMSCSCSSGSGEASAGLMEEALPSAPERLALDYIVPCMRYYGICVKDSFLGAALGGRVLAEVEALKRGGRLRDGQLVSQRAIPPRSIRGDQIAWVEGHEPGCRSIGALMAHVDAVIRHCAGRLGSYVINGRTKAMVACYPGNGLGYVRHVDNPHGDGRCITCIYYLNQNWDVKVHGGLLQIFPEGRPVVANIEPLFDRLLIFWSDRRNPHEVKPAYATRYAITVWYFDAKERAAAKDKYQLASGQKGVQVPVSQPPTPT
The experiment can be described thus: Co-immunoprecipitation of HA-OS-9 with PHD1 in 293 cells. Type of experiment: cell-based. Particulars: anti-HA immunoprecipitates, immunoblot; FIG. 5. As to the method:
as §1

A further experiment addresses T4, PHD3 (Homo sapiens, UniProt Q9H6Z9).
T4 construct: expressed in transfected cells; host or cells: 293 cells
Nature of the experiment: Co-immunoprecipitation of HA-OS-9 with PHD3 in 293 cells. It is filed as cell-based. Particulars: anti-HA immunoprecipitates, immunoblot; FIG. 5. As to the method: as §1

For experiment [2], the system named is HIF-1α transactivation domains (residues 531-826). Nature of the experiment: GAL4-dependent reporter (pGalA) transactivation assay. Type of experiment: cell-based, human. Particulars: co-transfection of OS-9 expression vector; FIG. 3B. As to the method:
293 or Hep3B cells were seeded onto 24-well plates at 8×10^4 cells per well of a 24-well plate. The following day, the cells were transfected with plasmid DNAs using Fugene-6 (Roche) for 293 and Lipofectamine Plus (Invitrogen) for Hep3B cells. After 24 h, the cells were exposed to 20% or 1% O2 for 24 h. Cells were lysed, and the luciferase activities were determined by multi-well luminescence reader (PerkinElmer), using the Dual-Luciferase Reporter Assay System (Promega). For p2.1 reporter assay, cells were co-transfected with 15 ng of control reporter pSV-Renilla, 135 ng of HIF-1 reporter p2.1, and expression vector encoding HA-OS-9, HIF-1α, or empty vector. Unless indicated otherwise, 200 ng of HIF-1α, 400 ng of HA-OS-9, 1 ng of PHD2, or 1 ng of HIF-1α triple mutant P402A/P564A/N803A (HIF-1α TM) expression vector was used for co-transfection. For pGalA reporter assays, Hep3B cells were co-transfected with 12.5 ng of pSV-Renilla, reporter 200 ng of pG5ElbLuc, 100 ng of expression vector encoding the GAL4 DNA-binding domain alone or fused to HIF-1α residues 531-826 (Jiang et al. 1997) and empty vector or vector encoding HA-OS-9. For immunoblot assays, 293 cells were seeded at 3×10^6 cells per 10-cm plate. The following day, the cells were co-transfected with expression vectors using Fugene-6. […]

Experiment [3] deals with T2, HIF-1α. The experiment can be described thus: In vitro interaction (GST pull-down) assay of OS-9 with GST-HIF-1α fusion proteins. Type of experiment: binding. Further details: made in house; host or cells: E. coli BL21-Gold(DE3)pLysS (GST fusion); rabbit reticulocyte lysate TNT T7 (HA-OS-9). The following applies: increasing amounts of in vitro-translated OS-9, desferrioxamine present; FIG. 6C. As to the method:
To prepare GST fusion proteins, E. coli BL21-Gold(DE3)pLysS (Stratagene) was transformed with a pGEX expression vector and treated for 4 h with 0.5 mM isopropyl-D-thiogalactoside. Pelleted cells were lysed by sonication in PBS containing 1% Triton X-100 and Complete protease inhibitor cocktail (Roche). After centrifugation, supernatants were applied to glutathione-Sepharose 4B beads (Amersham Pharmiacia Biotech). GST fusion proteins were eluted with 10 mM reduced glutathione in 50 mM Tris-HCl (pH 8.0) and stored at −80° C. The concentration and purity of eluates were determined by the Bradford method and by SDS-PAGE. [^35S]methionine-labeled proteins were generated in reticulocyte lysates with plasmids encoding HA-OS-9 or FLAG-VHL using the TNT T7 coupled transcription/translation system (Promega). Ten μl of in vitro-translated ^35S-labeled protein was mixed with 4 μg of GST or GST-HIF-1α fusion protein (Mahon et al. 2001) in a final volume of 200 μof PBS-T binding buffer (Dulbecco's PBS [pH 7.4], 0.1% Tween-20). The binding reaction was performed at 4° C. for 2 h with rotation followed by the addition of […] pre-washed glutathione-Sepharose 4B beads. After 30 min of mixing on a rotator, the beads were washed three times with PBS-T. Proteins were eluted in Laemmli sample buffer and analyzed by SDS-PAGE followed by autoradiography.
Target sequence in this assay (Q16665 531-826): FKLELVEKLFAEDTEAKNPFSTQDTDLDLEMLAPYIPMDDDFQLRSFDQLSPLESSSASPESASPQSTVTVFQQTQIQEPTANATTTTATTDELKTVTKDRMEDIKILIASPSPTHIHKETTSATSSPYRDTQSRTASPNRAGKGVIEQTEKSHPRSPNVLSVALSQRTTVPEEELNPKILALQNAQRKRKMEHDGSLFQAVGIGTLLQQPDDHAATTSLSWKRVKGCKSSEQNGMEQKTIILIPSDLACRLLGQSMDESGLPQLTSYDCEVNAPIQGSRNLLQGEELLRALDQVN

T1 sequence (Q9GZT9 whole entry): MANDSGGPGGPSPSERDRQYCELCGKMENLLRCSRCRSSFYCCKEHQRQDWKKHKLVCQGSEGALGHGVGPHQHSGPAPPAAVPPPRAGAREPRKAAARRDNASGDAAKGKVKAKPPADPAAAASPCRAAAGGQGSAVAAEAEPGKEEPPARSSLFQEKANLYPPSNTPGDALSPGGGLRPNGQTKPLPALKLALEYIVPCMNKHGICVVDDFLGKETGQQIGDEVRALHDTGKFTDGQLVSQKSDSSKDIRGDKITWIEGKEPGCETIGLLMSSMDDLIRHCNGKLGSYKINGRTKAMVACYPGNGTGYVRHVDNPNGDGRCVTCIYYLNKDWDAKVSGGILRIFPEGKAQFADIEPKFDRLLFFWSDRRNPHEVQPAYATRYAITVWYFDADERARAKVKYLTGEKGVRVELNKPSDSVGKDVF
T4 sequence (Q9H6Z9 whole entry): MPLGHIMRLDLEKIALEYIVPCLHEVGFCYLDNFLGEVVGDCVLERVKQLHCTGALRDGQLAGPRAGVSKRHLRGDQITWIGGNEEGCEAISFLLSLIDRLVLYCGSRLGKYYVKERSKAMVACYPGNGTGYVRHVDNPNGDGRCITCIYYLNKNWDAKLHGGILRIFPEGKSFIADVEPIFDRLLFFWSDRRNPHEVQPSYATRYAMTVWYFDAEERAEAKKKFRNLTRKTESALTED

B1: OS-9: human OS-9 protein (667-residue isoform), HA-tagged, from expression vector or in vitro-translated (protein)
chain: MAAETLLSSLLGLLLLGLLLPASLTGGVGSLNLEELSEMRYGIEILPLPVMGGQSQSSDVVIVSSKYKQRYECRLPAGAIHFQREREEETPAYQGPGIPELLSPMRDAPCLLKTKDWWTYEFCYGRHIQQYHMEDSEIKGEVLYLGYYQSAFDWDDETAKASKQHRLKRYHSQTYGNGSKCDLNGRPREAEVRFLCDEGAGISGDYIDRVDEPLSCSYVLTIRTPRLCPHPLLRPPPSAAPQAILCHPSLQPEEYMAYVQRQADSKQYGDKIIEELQDLGPQVWSETKSGVAPQKMAGASPTKDDSKDSDFWKMLNEPEDQAPGGEEVPAEEQDPSPEAADSASGAPNDFQNNVQVKVIRSPADLIRFIEELKGGTKKGKPNIGQEQPVDDAAEVPQREPEKERGDPERQREMEEEEDEDEDEDEDEDERQLLGEFEKELEGILLPSDRDRLRSEVKAGMERELENIIQETEKELDPDGLKKESERDRAMLALTSTLNKLIKRLEEKQSPELVKKHKKKRVVPKKPPPSPQPTEEDPEHRVRVRVTKLRLGGPNQDLTVLEMKRENPQLKQIEGLVKELLEREGLTAAGKIEIKIVRPWAEGTEEGARWLTDEDTRNLKEIFFNILVPGAEEAQKERQRQKELESNYRRVWGSPGGEGTGDLDEFDF
modifications: left off: small tags and cut ends
notes: human OS-9 protein (667-residue isoform), HA-tagged, from expression vector or in vitro-translated
Turning to B1, the “binding of PHD2 to GST-HIF-1α (531-826)” value in the experiment with PHD2 was “increased binding”. Also, in the experiment with HIF-1α [1], the “interaction of HA-OS-9 and HIF-1α in living cells” value is “coimmunoprecipitation”. For the same molecule, in the experiment with PHD1, the “interaction of OS-9 with PHD1” value was “interaction”. Also, in the experiment with PHD3, the “interaction of OS-9 with PHD3” value is “interaction”. Moreover, the “transactivation of GAL4-dependent reporter by pGalA” value in experiment [2] was “no significant inhibitory effect”. Also, in the experiment with HIF-1α [3], the “binding of OS-9 to GST-HIF-1α (531-826)” value was “dose-dependent manner”.
